Literature values as cited in publication PMC3020241.

Target: arrestin-1 (dimer) (Mus musculus) (UniProt P20443)

Kd: 57.5 µM
Substance: arrestin-1 (from UniProt P20443)
